This is an account of results in publication PMC4619609.

Common to all, as to assay: ELISA
Assay [1] has as its target mAb 1331 (CD4bs). The conditions noted are these: mAbs (10 µg/ml); gp120s from virus lysates; parent: est. 2.0; read off a plot.
The target in assay [2] is mAb 1357 (V2i). The note with it: mAbs (10 µg/ml), gp120s from virus lysates.
Assay [3] has as its target mAb 1361 (V2i). The conditions noted are these: mAbs (10 µg/ml); gp120s from virus lysates; parent: est. 2.8; read off a plot.
Assay [4] deals with mAb 1393A (V2i). The note with it: mAbs (10 µg/ml); gp120s from virus lysates; parent: est. 2.2; read off a plot.
The target of assay [5] is mAb 1418 (Ctrl). The note with it: mAbs (10 µg/ml); gp120s from virus lysates; parent: est. 0.21; read off a plot.
The target of assay [6] is mAb 2158 (V2i). The conditions noted are these: mAbs (10 µg/ml); gp120s from virus lysates; parent: est. 2.0; read off a plot.
Assay [7] has as its target mAb 2219 (V3). The conditions noted are these: mAbs (10 µg/ml); gp120s from virus lysates; parent: est. 2.2; read off a plot.
Assay [8] has as its target mAb 830A (V2i). The note with it: mAbs (10 µg/ml); gp120s from virus lysates; parent: est. 2.1; read off a plot.
Assay [9] has as its target recombinant CD4-IgG2 protein (UniProt P01730). The conditions noted are these: 10 µg/ml; gp120s from virus lysates; parent: est. 3.7; read off a plot.

Turning to gp120 of ZM109 WT R153E, the response in [1] was found to be 1.9 OD 405nm; in [2] (parent: est. 0.46, read off a plot), 1.5 OD 405nm; in [3] it was 2.3 OD 405nm; in assay [4], 2.4 OD 405nm; in [5] it was 0.17 OD 405nm; in [6] it was 1.7 OD 405nm. In addition, the response in [7] amounted to 2.6 OD 405nm; in assay [8], 2 OD 405nm; in assay [9] it was 3.6 OD 405nm. Also, in [2], the ratio to parent was found to be 3 x.
